# Molecular target: 6xHis-tag M1 protein from Influenza A/FPV/Rostock/34, labelled with Alexa Fluor 488 (M1-Alexa488) (Influenza A virus A/FPV/Rostock/34) (UniProt P03487)
# Experiment: […], pH 7.4, NaCl ~45 mM; […]
substance,measurement,value
"6xHis-tag M1 protein from Influenza A/FPV/Rostock/34, labelled with Alexa Fluor 488 (M1-Alexa488) (from UniProt P03487 1-252) (natural protein)",stoichiometry N,15

# Reference: PMC6682550
